These results are taken from patent US12540174 (NASCENT BIOTECH, dated 2026).

As a reminder, the EC50 is the concentration at which the effect is half-maximal. Lower therefore signals higher potency in that assay. By koff is commonly meant the rate constant with which the complex falls apart. One may read the kon as the rate constant with which the complex forms. As usually defined, the Kd is the equilibrium constant for the complex coming apart.

For assay [1], the target named is T1, antigen of the potency binding ELISA of Example 1 (not named).
T1 construct: kept apart from m2 so as not to guess
Put plainly: binding ELISA (potency assay), antigen not named; lot stored in polypropylene cryovial. (In general: ELISA stands for enzyme-linked immunosorbent assay.)

The target of assay [2] is T1, antigen of the potency binding ELISA of …. Nature of the assay: binding (potency) ELISA, OD 450 nm against Log10 [mAb]; clinical drug substance lot stored in polypropylene cryovial; coated antigen not named.
For assay [3] the target is unchanged. Put plainly: binding (potency) ELISA, OD 450 nm against Log10 [mAb]; reference standard (tox) lot stored in polypropylene cryovial 3; coated antigen not named; the table cell has no unit, ug/ml is taken from the concentration axis.
For assay [4] the target is unchanged. Put plainly: binding ELISA, antigen not named; third lot (reference standard) stored in PETG serum vial.
Assay [5] has the same target. Put plainly: binding (potency) ELISA, OD 450 nm against Log10 [mAb]; reference standard (tox) lot stored in polypropylene cryovial 1; coated antigen not named; the table cell has no unit, ug/ml is taken from the concentration axis.
Assay [6] shares this target. Nature of the assay: binding (potency) ELISA, OD 450 nm against Log10 [mAb]; reference standard (tox) lot stored in polypropylene cryovial 2; coated antigen not named; the table cell has no unit, ug/ml is taken from the concentration axis.
The target is the same in assay [7]. Put plainly: binding (potency) ELISA, OD 450 nm against Log10 [mAb]; reference standard (tox) lot stored in PETG serum vial; coated antigen not named; the table cell has no unit, ug/ml is taken from the concentration axis.
Assay [8] addresses T2, recombinant human vimentin (human, UniProt P08670 1-466, limits assumed).
T2 construct: also called recombinant vimentin
Put plainly: BLI, Octet HTX, 25 C; pritumumab on anti-human-Fc (AHC) biosensors, recombinant human vimentin as analyte, 1:1 model. On the procedure:
(§1) To determine binding affinity of the antibody Pritumumab for vimentin. Octet HTX was employed to measure the antibody binding to human vimentin. Binding experiments were performed on Octet HTX at 25° C. Pritumumab (10 ug/ml) was loaded onto Anti-Human-Fc (AHC) biosensors. Loaded sensors were dipped into a serial of antigen dilutions (recombinant human vimentin) (300 nM start, 1:3 down, 7 points). Kinetic constants were calculated using a monovalent (1:1) model.
Background: Biolayer interferometry detects binding as a change in optical thickness at a sensor tip.

Assay [9] deals with T1, antigen of the potency binding ELISA of …. Nature of the assay: binding ELISA (potency assay), antigen not named; lot stored in PETG serum vial.
For assay [10] the target is unchanged. Put plainly: binding ELISA (potency assay), antigen not named; lot stored in glass serum containers.
Assay [11] has as its target T2, recombinant human vimentin. Nature of the assay: BLI, Octet HTX, 25 C; pritumumab on anti-human-Fc (AHC) biosensors, recombinant human vimentin as analyte (300 nM start, 1:3, 7 points), 1:1 model. On the procedure: as §1
The target of assay [12] is T1, antigen of the potency binding ELISA of …. Put plainly: binding ELISA, antigen not named; third lot (reference standard) stored in polypropylene cryovials, 3 vials.

T2 sequence (P08670 whole entry): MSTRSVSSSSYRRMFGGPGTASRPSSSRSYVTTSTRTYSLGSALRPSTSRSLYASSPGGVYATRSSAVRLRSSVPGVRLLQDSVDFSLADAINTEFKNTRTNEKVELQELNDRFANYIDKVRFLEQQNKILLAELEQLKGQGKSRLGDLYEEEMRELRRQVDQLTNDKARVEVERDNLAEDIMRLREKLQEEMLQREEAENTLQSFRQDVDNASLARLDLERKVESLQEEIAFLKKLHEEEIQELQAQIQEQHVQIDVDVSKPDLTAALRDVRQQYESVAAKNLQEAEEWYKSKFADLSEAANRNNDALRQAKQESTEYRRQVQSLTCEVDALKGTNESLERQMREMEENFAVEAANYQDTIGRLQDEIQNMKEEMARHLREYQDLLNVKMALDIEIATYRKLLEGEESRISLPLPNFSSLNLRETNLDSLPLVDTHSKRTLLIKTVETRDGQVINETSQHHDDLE

B1: pritumumab (antibody, human IgG1, kappa, V domains shown)
VH: EVQLLESGGDLVQPGGSLRLSCAASGFTFSNYAMSWVRQAPGKGLEWVSAITPSGGSTNYADSVKGRFTISRDNSQNTLYLQMNSLRVEDTAVYICGRVPYRSTWYPLYWGQGTLVTVSS
VL: DIQMTQSPSSLSASVGDRVTITCRASQDISNYLAWFQQKPGKAPKSLIYAASSLHSKVPTQFSGSGSGTDFTLTISSLQPEDFATYYCLQYSTYPITFGGGTKVEIKR
notes: Several lots stored in different containers (glass, PETG, polypropylene) were tested; also called Pritumumab human monoclonal antibody
B1: the EC50 in assay [1] was found to be 20 µg/mL; in assay [2], 20.1 µg/mL; in [3], 40.2 µg/mL; in assay [4] it was 11 µg/mL; in assay [5], 38 µg/mL; in assay [6], 37.1 µg/mL. In addition, the EC50 in assay [7] was 11.4 µg/mL; in assay [9], 9.6 µg/mL; in assay [10], 8.25 µg/mL; in assay [12], 37 to 40 µg/mL. Besides, the koff in [8] was determined as 0.000443 s⁻¹. In [8], the kon came to 58700 M⁻¹ s⁻¹. In addition, the equilibrium dissociation constant (Kd) in assay [11] amounted to 7.55 nM.
